{
  "source": "patent US6566104",
  "biological_target": "endogenous ErbB-4 of T47D human breast cancer cells (human) (UniProt Q15303)",
  "sequence (Q15303 26-1308, stated change not applied)": "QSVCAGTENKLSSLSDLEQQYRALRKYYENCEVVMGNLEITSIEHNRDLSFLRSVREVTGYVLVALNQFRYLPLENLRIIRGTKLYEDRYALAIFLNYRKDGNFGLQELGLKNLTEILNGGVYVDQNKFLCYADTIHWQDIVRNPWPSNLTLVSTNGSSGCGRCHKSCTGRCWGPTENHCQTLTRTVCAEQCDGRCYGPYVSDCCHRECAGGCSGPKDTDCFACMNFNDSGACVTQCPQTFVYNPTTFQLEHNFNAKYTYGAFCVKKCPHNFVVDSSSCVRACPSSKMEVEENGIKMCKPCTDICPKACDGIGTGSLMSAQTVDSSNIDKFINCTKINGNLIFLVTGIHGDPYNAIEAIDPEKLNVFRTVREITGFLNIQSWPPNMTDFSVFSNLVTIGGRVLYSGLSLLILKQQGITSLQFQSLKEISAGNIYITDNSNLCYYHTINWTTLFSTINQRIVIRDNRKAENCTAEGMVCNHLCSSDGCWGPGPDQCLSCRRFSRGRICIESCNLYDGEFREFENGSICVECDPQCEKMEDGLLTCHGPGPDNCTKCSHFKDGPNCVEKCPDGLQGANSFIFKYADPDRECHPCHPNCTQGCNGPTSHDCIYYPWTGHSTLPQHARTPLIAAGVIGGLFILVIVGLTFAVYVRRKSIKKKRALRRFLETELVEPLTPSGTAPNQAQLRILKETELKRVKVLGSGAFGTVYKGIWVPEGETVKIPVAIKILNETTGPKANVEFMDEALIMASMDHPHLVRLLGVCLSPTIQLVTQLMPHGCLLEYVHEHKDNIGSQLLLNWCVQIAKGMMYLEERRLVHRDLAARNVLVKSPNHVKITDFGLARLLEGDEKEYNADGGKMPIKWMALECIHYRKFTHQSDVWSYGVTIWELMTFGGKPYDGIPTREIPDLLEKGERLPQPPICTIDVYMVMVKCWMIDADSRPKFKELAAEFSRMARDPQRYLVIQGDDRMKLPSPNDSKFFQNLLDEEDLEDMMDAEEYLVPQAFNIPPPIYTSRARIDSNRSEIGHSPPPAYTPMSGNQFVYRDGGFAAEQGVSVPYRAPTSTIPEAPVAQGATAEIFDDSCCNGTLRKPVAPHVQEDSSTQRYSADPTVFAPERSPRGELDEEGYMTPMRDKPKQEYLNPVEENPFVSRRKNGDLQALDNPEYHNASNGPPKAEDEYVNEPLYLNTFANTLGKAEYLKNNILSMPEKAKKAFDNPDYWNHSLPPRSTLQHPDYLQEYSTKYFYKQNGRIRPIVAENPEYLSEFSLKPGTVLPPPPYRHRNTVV",
  "assay": "cell-based or functional assay",
  "data": [
    {"substance": "NRG1-α (from UniProt Q02297 177-241) (ligand)", "values": [
      {"measurement": "colony formation in soft agar, T47D wild type cells treated with neuregulin (FIG. 13)", "result": 11, "unit": "fold"},
      {"measurement": "colony formation in soft agar, ribozyme transfected T47D cells (T47D/Rz, ErbB-4 down-regulated)", "result": 2.5, "unit": "fold"}
    ]}
  ]
}
